The results in this text go back to US20070122422A1, “Sodium-independent small neutral amino acid transporter transporting L- and D- amino acids” (Japan Science and Technology Corporation, priority 2000, published 2007).

Data set [1] concerns the target T1, intracellular substrate-binding site of asc-1 of mouse (Mus musculus, UniProt P63115).
T1 construct: expressed in transfected cells; host or cells: Xenopus oocytes injected with cRNA
T1 sequence (P63115 1-530): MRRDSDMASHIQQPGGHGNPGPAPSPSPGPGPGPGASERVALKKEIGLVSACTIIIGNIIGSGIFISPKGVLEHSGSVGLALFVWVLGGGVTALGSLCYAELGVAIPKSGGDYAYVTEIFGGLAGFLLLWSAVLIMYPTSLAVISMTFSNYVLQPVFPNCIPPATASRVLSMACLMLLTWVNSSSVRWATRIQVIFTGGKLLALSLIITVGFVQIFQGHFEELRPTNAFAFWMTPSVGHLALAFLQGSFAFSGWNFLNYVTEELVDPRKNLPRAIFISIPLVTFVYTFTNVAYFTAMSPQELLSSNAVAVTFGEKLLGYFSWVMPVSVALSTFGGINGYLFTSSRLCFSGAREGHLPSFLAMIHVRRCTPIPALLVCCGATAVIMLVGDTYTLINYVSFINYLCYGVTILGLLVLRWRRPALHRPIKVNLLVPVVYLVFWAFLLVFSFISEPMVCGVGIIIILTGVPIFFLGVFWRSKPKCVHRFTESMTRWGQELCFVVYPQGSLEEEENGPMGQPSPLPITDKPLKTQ
T1 sequence (P10852 1-526 partner): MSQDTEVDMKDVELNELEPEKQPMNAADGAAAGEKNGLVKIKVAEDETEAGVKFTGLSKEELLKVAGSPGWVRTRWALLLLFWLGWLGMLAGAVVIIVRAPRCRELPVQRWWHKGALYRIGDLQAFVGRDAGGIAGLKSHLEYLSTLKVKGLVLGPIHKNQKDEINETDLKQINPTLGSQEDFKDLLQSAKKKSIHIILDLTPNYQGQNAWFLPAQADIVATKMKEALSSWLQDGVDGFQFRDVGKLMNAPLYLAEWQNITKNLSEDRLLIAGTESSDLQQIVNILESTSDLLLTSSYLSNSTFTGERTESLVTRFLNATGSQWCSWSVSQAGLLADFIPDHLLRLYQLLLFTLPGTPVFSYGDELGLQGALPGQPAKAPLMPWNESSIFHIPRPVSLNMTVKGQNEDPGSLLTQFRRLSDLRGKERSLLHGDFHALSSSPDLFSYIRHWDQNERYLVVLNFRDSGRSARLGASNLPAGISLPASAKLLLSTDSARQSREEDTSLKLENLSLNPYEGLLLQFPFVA
Put plainly: Release of injected 14C-amino acid from oocytes co-expressing asc-1 and 4F2hc on extracellular alanine. Type of data set: cell-based. Particulars: alanine 100 μM added to Na+-free uptake solution. Here is the method: In oocytes into which cRNA of asc-1 gene and cRNA of 4F2hc gene of mouse were injected together, release of preloaded ^14C-amino acid mediated by asc-1 was checked whereby the substrate selectivity of intracellular substrate-binding site of asc-1 was checked.
(§1) ^14C-Amino acid (˜3nCi) of 100 μM in an amount of 100 nl was injected into the oocytes into which both asc-1 gene cRNA and 4F2hc gene cRNA of mouse were injected together, washed with an ice-cooled Na^+-free uptake solution containing no alanine and transferred to a Na^+-free uptake solution to which alanine (100 μM) was added or not added at room temperature (18° C.-22° C.) and the amount of ^14C-amino acid released outside the cells was measured.
Black bars in FIG. 21 show the case where alanine was added to a Na^+-free uptake solution while bars with oblique lines show the case where alanine was not added to a Na^+-free uptake solution.

Data set [2] deals with T2, asc-1 of mouse (co-expressed with 4F2hc of mouse) (Mus musculus, UniProt P63115).
T2 construct: expressed in transfected cells; host or cells: Xenopus oocytes injected with cRNA
T2 sequence (P63115 1-530): T1 sequence (P63115 1-530)
T2 sequence (P10852 1-526 partner): T1 sequence (P10852 1-526 partner)
The experiment in a line: Incorporation of radiolabeled amino acids and analogs by oocytes co-expressing asc-1 and 4F2hc. Type of data set: cell-based. Here is the method: Incorporation of alanine when asc-1 gene cRNA of mouse was solely expressed in oocytes of Xenopus and when asc-1 gene cRNA of mouse and 4F2hc gene cRNA of mouse were expressed in oocytes of Xenopus together was compared.
(§2) Into oocytes were injected 12 ng of asc-1 gene cRNA of mouse, 13 ng of 4F2hc gene cRNA of mouse or 12 ng asc-1 gene cRNA of mouse/13 ng of 4F2hc gene cRNA of mouse to express followed by incubating for 3 days. […] Thus, the oocytes were allowed to stand for 30 minutes in a Na^+-free uptake solution [100 mM choline chloride, 2 mM potassium chloride, 1.8 mM calcium chloride, 1 mM magnesium chloride, 5 mM HEPES; pH 7.4] containing ^14C-alanine (100 μM) as a substrate and the rate of the substrate incorporated into the cells was measured by way of counting the radioactivity incorporated thereinto.
In an experiment of incorporation of alanine by oocytes into which both asc-1 gene cRNA and 4F2hc gene cRNA of mouse were injected together, influence of the salt added to the medium was investigated.
The experiment of incorporation of alanine was carried out in accordance with the method mentioned in the above Example 2(1) using oocytes into which both asc-1 gene cRNA and 4F2hc gene cRNA of mouse were injected together. When the influence of sodium ion was checked however, a standard uptake solution (where 100 mM choline chloride was substituted with 100 mM sodium chloride) was used in place of the Na^+-free uptake solution as the uptake solution. When the influence of chlorine ion was checked, a gluconic acid uptake solution (where 100 mM sodium chloride was substituted with 100 mM sodium gluconate) was used in place of the standard uptake solution.
Incorporation by asc-1 was investigated using various amino acids and analogs thereof as substrates. Experiment for incorporation of various amino acids and analogs thereof was carried out according to the method mentioned in the above Example 2(1) using oocytes into which asc-1 gene cRNA of mouse and 4F2hc gene cRNA of mouse were injected together. With regard to the substrates however, various compounds labeled with radioactivity were used in place of ^14C-alanine.
Influence of pH was checked in an experiment for incorporation of alanine by oocytes into which both asc-1 gene cRNA and 4F2hc gene cRNA of mouse were injected together. With regard to an experiment for incorporation of alanine, the method according to that mentioned in the above Example 2 (1) was carried out using oocytes into which both asc-1 gene cRNA of mouse and 4F2hc gene cRNA of mouse were injected together.

The target of data set [3] is T2, asc-1 of mouse (co-expressed with 4F2hc of mouse). The experiment in a line: Inhibition of 14C-alanine incorporation by added amino acids and analogs in oocytes co-expressing asc-1 and 4F2hc. Type of data set: cell-based. To be noted: 14C-alanine 50 μM; 5 mM non-labeled compound; Na+-free uptake solution. The procedure:
as §2
In an experiment of incorporation of alanine by oocytes into which both asc-1 gene cRNA of mouse and 4F2hc gene cRNA of mouse were injected, influence of addition of various amino acid and analogs thereof was investigated.
In an experiment of incorporation of alanine, a method according to that mentioned in the above Example 2(1) was carried out using oocytes into which both asc-1 gene cRNA of mouse and 4F2hc gene cRNA of mouse were injected. Here, a Na^+-free uptake solution was used and incorporation of ^14C-alanine (50 μM) was measured in the presence and absence of 5 mM of various compounds (non-labeled).

Data set [4] shares this target. The experiment in a line: Michaelis-Menten kinetic test of substrate incorporation by Xenopus oocytes co-expressing asc-1 and 4F2hc. Type of data set: cell-based. To be noted: ratio to the Vmax value for alanine (defined as 1.00). Here is the method:
as §2
A Michaelis-Menten kinetic test was carried out for a sodium-independent small neutral amino acid transporter asc-1 which transports L- and D-amino acids. By checking the changes in the rate of incorporation of alanine due to the difference in concentration of the alanine substrate, the Michaelis-Menten kinetic test of asc-1 was carried out.
An experiment for the incorporation of alanine was carried out according to the method mentioned in the above Example 2(1) using the oocytes into which both asc-1 gene cRNA of mouse and 4F2hc gene cRNA of mouse were injected.
With regard to amino acids other than alanine which were used as substrates, a Michaelis-Menten kinetic was carried out as well in the same manner whereupon Km values and Vmax values were calculated. Each Vmax value in Table 1 was shown in terms of the ratio when the Vmax value of alanine was defined as 1.00.

For data set [5] the target is unchanged. The experiment in a line: Release of preloaded 14C-alanine from oocytes co-expressing asc-1 and 4F2hc on extracellular addition of compound. Particulars: 100 μM compound added to Na+-free uptake solution; room temperature. Type of data set: cell-based. The procedure:
as §1, with “Release of a preloaded ^14C-alanine mediated by asc-1 was checked in the oocytes into which both asc-1 gene cRNA and 4F2hc gene cRNA of mouse were injected together. ^14C-Alanine (−3nCi)” for “^14C-Amino acid (˜3nCi)”, “^14C-alanine” for “^14C-amino acid”
In oocytes into which cRNA of asc-1 gene and cRNA of 4F2hc gene of mouse were injected together, release of preloaded ^14C-alanine mediated by asc-1 was investigated whereupon it was checked whether the compound which inhibited the incorporation of ^14C-alanine mediated by asc-1 was a substrate of asc-1.
^14C-Alanine (−3nCi) of 100 μM in an amount of 100 nl was injected into the oocytes into which both asc-1 gene cRNA and 4F2hc gene cRNA of mouse were injected together, washed with an ice-cooled Na^+-free uptake solution containing no alanine and transferred to a Na^+-free uptake solution to which amino acid or amino acid analog (100 μM) was added or not added at room temperature (18° C.-22° C.) and the amount of ^14C-alanine released outside the cells was measured.
Black bars in FIG. 18 are the case where there were used oocytes into which cRNA of mouse asc-1 gene and cRNA of mouse 4F2hc gene were injected while white bars are the case where there were used oocytes into which water was injected instead of cRNA as a control.

Substrate in data set [6]: NCCC(=O)O
The experiment in a line: cells, lysate or membranes. Particulars: other: oocytes with mouse asc-1 and 4F2hc cRNA; Na+-free uptake solution; pH 7.4.

Substrate in data set [7]: NCC(=O)O
Put plainly: cells, lysate or membranes. Particulars: other: oocytes with mouse asc-1 and 4F2hc cRNA; Na+-free uptake solution; pH 7.4.

Substrate in data set [8]: CSCC[C@H](N)C(=O)O
Put plainly: cells, lysate or membranes. Particulars: other: oocytes with mouse asc-1 and 4F2hc cRNA; Na+-free uptake solution; pH 7.4.

Substrate in data set [9]: C[C@@H](N)C(=O)O
The experiment in a line: cells, lysate or membranes. Particulars: other: oocytes with mouse asc-1 and 4F2hc cRNA; Na+-free uptake solution; pH 7.4.

Substrate in data set [10]: C[C@H](N)C(=O)O
Put plainly: cells, lysate or membranes. To be noted: other: oocytes with mouse asc-1 and 4F2hc cRNA; Na+-free uptake solution; pH 7.4.

Substrate in data set [11]: C[C@@H](O)[C@H](N)C(=O)O
The experiment in a line: cells, lysate or membranes. Particulars: other: oocytes with mouse asc-1 and 4F2hc cRNA; Na+-free uptake solution; pH 7.4.

Substrate in data set [12]: N[C@@H](Cc1ccccc1)C(=O)O
The experiment in a line: Michaelis-Menten kinetic test of substrate incorporation by Xenopus oocytes co-expressing asc-1 and 4F2hc. Type of data set: cell-based. To be noted: other: oocytes with mouse asc-1 and 4F2hc cRNA; Na+-free uptake solution; pH 7.4.

Substrate in data set [13]: CC[C@H](C)[C@H](N)C(=O)O
The description is as above. The class given is cell-based. Particulars: other: oocytes with mouse asc-1 and 4F2hc cRNA; Na+-free uptake solution; pH 7.4.

Substrate in data set [14]: N[C@@H](CS)C(=O)O
The data set is described as above. Type of data set: cell-based. Particulars: other: oocytes with mouse asc-1 and 4F2hc cRNA; Na+-free uptake solution; pH 7.4.

Substrate in data set [15]: N[C@H](CO)C(=O)O
The description is as above. The class given is cell-based. To be noted: other: oocytes with mouse asc-1 and 4F2hc cRNA; Na+-free uptake solution; pH 7.4.

Substrate in data set [16]: CC(C)C[C@H](N)C(=O)O
Described as above. The class given is cell-based. Particulars: other: oocytes with mouse asc-1 and 4F2hc cRNA; Na+-free uptake solution; pH 7.4.

Substrate in data set [17]: CC(C)[C@H](N)C(=O)O
The description is as above. The class given is cell-based. To be noted: other: oocytes with mouse asc-1 and 4F2hc cRNA; Na+-free uptake solution; pH 7.4.

Substrate in data set [18]: N[C@@H](CO)C(=O)O
Described as above. Type of data set: cell-based. To be noted: other: oocytes with mouse asc-1 and 4F2hc cRNA; Na+-free uptake solution; pH 7.4.

Substrate in data set [19]: N[C@@H](Cc1c[nH]cn1)C(=O)O
The data set is described as above. The class given is cell-based. Particulars: other: oocytes with mouse asc-1 and 4F2hc cRNA; Na+-free uptake solution; pH 7.4.

Substrate in data set [20]: CC(C)(N)C(=O)O
The data set is described as above. The class given is cell-based. Particulars: other: oocytes with mouse asc-1 and 4F2hc cRNA; Na+-free uptake solution; pH 7.4.

As to `N[C@@H](CS)C(=O)O` [L-Cysteine], the “release of injected 14C-labeled amino acid by extracellular alanine” value in data set [1] was “increase in release”. For the same molecule, in [2] (radiolabeled substrate, oocytes expressing both asc-1 and 4F2hc, Na+-free uptake solution), the “incorporation into the oocytes as substrate” value is recorded as “big incorporation”. Also, the “transport by asc-1 (affinity in words)” value in data set [2] (summary statement, asc-1 co-existing with 4F2hc) is on record as “highly affinitive”. Further, the “inhibition of incorporation of 14C-alanine mediated by asc-1” value in data set [3] is “particularly strongly inhibited”. In data set [4], the Vmax amounted to 0.82.

For `C[C@@H](O)[C@H](N)C(=O)O` [L-Threonine], in data set [1], the “release of injected 14C-labeled amino acid by extracellular alanine” value is listed as “increase in release”. Moreover, in data set [4], the Vmax is listed as 0.86. In addition, in data set [5], the “increase in the release of preloaded 14C-alanine” value was “high increase”.

B1: asc-1 of mouse (co-expressed with 4F2hc of mouse) (Mus musculus) (protein)
chain: T1 sequence (P63115 1-530)
notes: expressed in transfected cells; host or cells: Xenopus oocytes injected with cRNA
Consider B1, for which the Km in [6] was determined as 281 µM; in data set [7], 7.8 µM; in [8], 139 µM; in data set [9], 100 µM; in [10], 23.0 ± 5.1 µM; in data set [11] it was 19.3 µM. For the same molecule, the Km in data set [12] came to 464 µM; in data set [13], 160 µM; in [14], 23.7 µM; in data set [15], 52.0 µM; in data set [16], 245 µM; in data set [17] it was 112 µM. The Km in data set [18] amounted to 11.3 µM; in data set [19], 368 µM; in [20] it was 22.7 µM.

For orientation: Km means the substrate concentration at which the rate is half of its maximum.
